Target: the molecule itself
Assay: AUC; sedimentation velocity, 20 uM (0.25 mg/mL), 20 mM sodium phosphate pH 8.0, 200 mM NaCl, 20 C, 50,000 RPM; monomer and dimer

B1: TNIP1 AHD1-UBAN construct (TNIP1^417-509) (domain or fragment, human, UniProt Q15025 417-509, looked up)
chain: QRLNKALEEALSIQTPPSSPPTAFGSPEGAGALLRKQELVTQNELLKQQVKIFEEDFQRERSDRERMNEEKEELKKQVEKLQAQVTLSNAQLK
notes: pET28a construct; For NMR the protein was 15N-labelled (minimal medium with 15NH4Cl); also called TNIP1 AHD1-UBAN region; AHD1-UBAN domain; source: E. coli BL-21(DE3) Rosetta 2, heat lysis, purified (HisTrap HP, Superdex 75); not shown: His6, C-terminal, kept
- stoichiometry N: 2
